Interaction score data for three molecules are collected here from publication PMC10397247.

Test [1] has as its target T1, 4H949-bH.
T1 chain: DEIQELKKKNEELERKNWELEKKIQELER
Nature of the test: two-hybrid library CCNG1.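 Further: natural log of median RNA to DNA barcode read ratio; higher means stronger binding.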

The target of test [2] is T2, 4H3381-bH.
T2 chain: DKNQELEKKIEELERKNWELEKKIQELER
Nature of the test: two-hybrid library CCNG1.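 Further: natural log of median RNA to DNA barcode read ratio; higher means stronger binding.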

The target in test [3] is T3, 4H3364-bH.
T3 chain: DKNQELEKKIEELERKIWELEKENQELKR
Nature of the test: two-hybrid library CCNG1.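 Further: natural log of median RNA to DNA barcode read ratio; higher means stronger binding.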

The target in test [4] is T4, O16-bN.
T4 chain: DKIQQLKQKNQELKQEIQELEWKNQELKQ
Nature of the test: two-hybrid library CCNG1.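 Further: natural log of median RNA to DNA barcode read ratio; higher means stronger binding.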

Test [5] addresses T5, O5-bP.
T5 chain: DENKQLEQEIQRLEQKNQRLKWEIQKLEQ
Nature of the test: two-hybrid library CCNG1.

The target in test [6] is T6, 4H730-bH.
T6 chain: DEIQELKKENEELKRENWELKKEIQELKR
Nature of the test: two-hybrid library CCNG1.

Test [7] addresses T7, 4H796-bH.
T7 chain: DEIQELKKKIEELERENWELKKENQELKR
Nature of the test: two-hybrid library CCNG1.

For test [8], the target named is T8, 4H932-bH.
T8 chain: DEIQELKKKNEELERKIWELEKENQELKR
Put plainly: two-hybrid library CCNG1.

Test [9] deals with T9, 4H349-bH.
T9 chain: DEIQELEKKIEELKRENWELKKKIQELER
Put plainly: two-hybrid library CCNG1.

In test [10] the target is T10, 4H56-bH.
T10 chain: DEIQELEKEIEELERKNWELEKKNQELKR
Put plainly: two-hybrid library CCNG1.

Test [11] concerns the target T11, 4H3029-AA.
T11 chain: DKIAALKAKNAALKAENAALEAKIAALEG
Nature of the test: two-hybrid library CCmax. To be noted: mean of both orientations.

Test [12] has as its target T12, 4H3446-AA.
T12 chain: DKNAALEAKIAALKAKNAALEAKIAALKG
Nature of the test: two-hybrid library CCmax. As to conditions: mean of both orientations.

In test [13] the target is T13, 4H971-AA.
T13 chain: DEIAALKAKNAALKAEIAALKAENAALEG
Put plainly: two-hybrid library CCmax. To be noted: mean of both orientations.

For test [14], the target named is T14, 4H3417-AA.
T14 chain: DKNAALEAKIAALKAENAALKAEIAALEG
Nature of the test: two-hybrid library CCmax. As to conditions: mean of both orientations.

Test [15] addresses T15, 4H3066-AA.
T15 chain: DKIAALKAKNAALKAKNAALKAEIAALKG
Put plainly: two-hybrid library CCmax. To be noted: mean of both orientations.

Test [16] deals with T16, 4H2248-AA.
T16 chain: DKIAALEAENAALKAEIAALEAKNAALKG
Nature of the test: two-hybrid library CCmax. As to conditions: mean of both orientations.

The target in test [17] is T17, 4H2713-AA.
T17 chain: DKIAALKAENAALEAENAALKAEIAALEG
Nature of the test: two-hybrid library CCmax. To be noted: mean of both orientations.

The target of test [18] is T18, 4H428-AA.
T18 chain: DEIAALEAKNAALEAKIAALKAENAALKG
Nature of the test: two-hybrid library CCmax. To be noted: mean of both orientations.

Test [19] deals with T19, 4H497-AA.
T19 chain: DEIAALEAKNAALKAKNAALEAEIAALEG
Put plainly: two-hybrid library CCmax. As to conditions: mean of both orientations.

The target in test [20] is T20, 4H3939-AA.
T20 chain: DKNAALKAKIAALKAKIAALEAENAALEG
Put plainly: two-hybrid library CCmax.

Test [21] has as its target T21, 4H391-AA.
T21 chain: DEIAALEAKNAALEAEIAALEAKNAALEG
Nature of the test: two-hybrid library CCmax. As to conditions: mean of both orientations.

Test [22] addresses T22, 4H675-AA.
T22 chain: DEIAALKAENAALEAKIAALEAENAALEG
Nature of the test: two-hybrid library CCmax. As to conditions: mean of both orientations.

In test [23] the target is T23, 4H478-AA.
T23 chain: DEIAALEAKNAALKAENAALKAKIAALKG
Nature of the test: two-hybrid library CCmax. As to conditions: mean of both orientations.

Test [24] has as its target T24, 4H2283-AA.
T24 chain: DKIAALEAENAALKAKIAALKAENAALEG
Put plainly: two-hybrid library CCmax. As to conditions: mean of both orientations.

For test [25], the target named is T25, 4H3102-AA.
T25 chain: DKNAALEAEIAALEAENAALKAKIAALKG
Nature of the test: two-hybrid library CCmax. As to conditions: mean of both orientations.

Test [26] deals with T26, 4H3628-AA.
T26 chain: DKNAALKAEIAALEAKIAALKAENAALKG
Put plainly: two-hybrid library CCmax. To be noted: mean of both orientations.

The target of test [27] is T27, 4H3920-AA.
T27 chain: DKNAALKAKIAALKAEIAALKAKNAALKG
Put plainly: two-hybrid library CCmax. As to conditions: mean of both orientations.

Test [28] deals with T28, 4H189-AA.
T28 chain: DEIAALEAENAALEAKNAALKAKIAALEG
Nature of the test: two-hybrid library CCmax.

Test [29] concerns the target T29, 4H656-AA.
T29 chain: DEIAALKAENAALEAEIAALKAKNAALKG
Nature of the test: two-hybrid library CCmax. To be noted: mean of both orientations.

Test [30] has as its target T30, 4H2948-AA.
T30 chain: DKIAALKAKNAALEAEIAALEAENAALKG
Nature of the test: two-hybrid library CCmax. To be noted: mean of both orientations.

Test [31] concerns the target T31, 4H3666-AA.
T31 chain: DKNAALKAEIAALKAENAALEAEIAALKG
Nature of the test: two-hybrid library CCmax. As to conditions: mean of both orientations.

Test [32] deals with T32, 4H3591-AA.
T32 chain: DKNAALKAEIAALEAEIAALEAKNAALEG
Nature of the test: two-hybrid library CCmax. To be noted: mean of both orientations.

For test [33], the target named is T33, 4H2742-AA.
T33 chain: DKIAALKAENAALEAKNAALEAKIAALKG
Put plainly: two-hybrid library CCmax. To be noted: mean of both orientations.

The target of test [34] is T34, 4H3121-AA.
T34 chain: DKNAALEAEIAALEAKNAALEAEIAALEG
Put plainly: two-hybrid library CCmax. As to conditions: mean of both orientations.

Test [35] addresses T35, 4H2991-AA.
T35 chain: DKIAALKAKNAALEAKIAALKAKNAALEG
Put plainly: two-hybrid library CCmax. As to conditions: mean of both orientations.

For test [36], the target named is T36, 4H3709-AA.
T36 chain: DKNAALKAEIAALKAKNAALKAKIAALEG
Put plainly: two-hybrid library CCmax. As to conditions: mean of both orientations.

Test [37] addresses GCN2_T. Nature of the test: two-hybrid library CCmax.
Test [38] concerns the target T37, AP6-AA.
T37 chain: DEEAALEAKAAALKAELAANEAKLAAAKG
Nature of the test: two-hybrid library CCmax. As to conditions: mean of both orientations.

Test [39] deals with T38, P11-AA.
T38 chain: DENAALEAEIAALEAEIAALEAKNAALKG
Put plainly: two-hybrid library CCmax. To be noted: mean of both orientations.

Test [40] deals with T39, P1-AA.
T39 chain: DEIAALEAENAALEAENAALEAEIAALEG
Nature of the test: two-hybrid library CCmax. To be noted: mean of both orientations.

Test [41] addresses T40, P3-AA.
T40 chain: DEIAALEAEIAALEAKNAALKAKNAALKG
Put plainly: two-hybrid library CCmax. To be noted: mean of both orientations.

For test [42], the target named is T41, P7-AA.
T41 chain: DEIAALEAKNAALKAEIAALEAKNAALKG
Nature of the test: two-hybrid library CCmax. As to conditions: mean of both orientations.

The target of test [43] is T42, P9-AA.
T42 chain: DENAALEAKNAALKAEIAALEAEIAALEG
Put plainly: two-hybrid library CCmax. As to conditions: mean of both orientations.

In test [44] the target is T43, P8-AA.
T43 chain: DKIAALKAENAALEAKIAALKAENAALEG
Put plainly: two-hybrid library CCmax. As to conditions: mean of both orientations.

The target of test [45] is T44, AP4-AA.
T44 chain: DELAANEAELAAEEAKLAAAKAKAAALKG
Put plainly: two-hybrid library CCmax.

Test [46] has as its target T45, P2-AA.
T45 chain: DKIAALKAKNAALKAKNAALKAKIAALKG
Nature of the test: two-hybrid library CCmax. As to conditions: mean of both orientations.

Test [47] has as its target T46, P10-AA.
T46 chain: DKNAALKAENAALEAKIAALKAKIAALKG
Nature of the test: two-hybrid library CCmax. To be noted: mean of both orientations.

Test [48] concerns the target T47, P12-AA.
T47 chain: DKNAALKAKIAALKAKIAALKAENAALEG
Put plainly: two-hybrid library CCmax. As to conditions: mean of both orientations.

In test [49] the target is T48, AP5-AA.
T48 chain: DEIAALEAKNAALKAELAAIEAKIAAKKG
Put plainly: two-hybrid library CCmax. To be noted: mean of both orientations.

Test [50] deals with T49, AP8-AA.
T49 chain: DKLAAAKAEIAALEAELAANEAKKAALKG
Nature of the test: two-hybrid library CCmax. As to conditions: mean of both orientations.

Test [51] has as its target T50, P4-AA.
T50 chain: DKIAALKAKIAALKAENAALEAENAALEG
Nature of the test: two-hybrid library CCmax. As to conditions: mean of both orientations.

Test [52] concerns the target T51, AP7-AA.
T51 chain: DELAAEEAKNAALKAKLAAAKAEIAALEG
Nature of the test: two-hybrid library CCmax. As to conditions: mean of both orientations.

In the case of DKNQELEKKIEELERKIWELEKENQELKR [4H3364-bH], the interaction score is 0.153 in test [1]; 0.55 in test [2]; 1.55 in test [3]; 0.622 in [4]; 0.546 in [5]; -0.811 in test [6]. For the same molecule, the interaction score in test [7] is -0.523; in test [8], -0.252; in [9], -0.118; in test [10] it was -0.464.

In the case of DEIAALEAENAALEAKNAALKAKIAALEG [4H189-AA], the interaction score in [11] was 2.05; in [12], -1.07; in test [13], -1.52; in [14] it was -1.19; in test [15] it was 1.07; in [16], -1.26. Further, the interaction score in [17] is 1.05; in test [18] it was -1.92; in test [19] it was 0.26; in test [20], -1.4; in [21], -1.47; in [22], -1.31. For the same molecule, the interaction score was 1.85 in [23]; -1.71 in test [24]; -1.74 in test [25]; -1.64 in [26]; -1.97 in test [27]; -1.25 in [28]. Moreover, the interaction score is -0.83 in test [29]; -1.02 in test [30]; -0.914 in test [31]; -0.919 in test [32]; 1.11 in test [33]; -1.84 in test [34]. In addition, the interaction score in [35] is -1.76; in test [36], -1.23.

Take DELAANEAELAAEEAKLAAAKAKAAALKG [AP4-AA]: the interaction score in test [37] is -1.55; in [38], -2.03; in test [39], -0.858; in test [40], -1.34; in test [41], -1.14; in test [42], -1.82. Further, the interaction score is -1.6 in [43]; -1.15 in test [44]; -1.46 in test [45]; -1.78 in test [46]; -1.25 in [47]; -1.45 in [48]. In addition, the interaction score in [49] is -1.51; in test [50], -1.25; in test [51], -1.48; in [52] it was -1.78.
